Laboratory results from article PMC5454392, “Selective BET bromodomain inhibition as an antifungal therapeutic strategy” (Nature Communications, 2017).
Numbered stars: 1 amine (or outer) side, 2 acyl side, 3 side chain; on linkers, the order of the positions; unused ones are H or OH. Square brackets hold non-standard residues; d marks the D form. Ends that are not written are not given here. Arg(Me2a) = CN(C)C(=N)NCCC[C@H](N)C(=O)O; Kac = CC(=O)NCCCC[C@H](N[*:1])C(=O)[*:2]; Arg(Me2s) = CN=C(NC)NCCC[C@H](N)C(=O)O; pT = C[C@@H](OP(=O)(O)O)[C@H](N)C(=O)O; Lys(Me2) = CN(C)CCCC[C@H](N)C(=O)O; pS = N[C@@H](COP(=O)(O)O)C(=O)O; Lys(Me) = CNCCCC[C@H](N)C(=O)O; Me2a = not defined here; me2a = not defined here

T1: CaBdf1 BD1 (GST-tagged, wild-type) (Candida albicans (strain SC5314 / ATCC …, UniProt Q5A4W8))
T1 chain: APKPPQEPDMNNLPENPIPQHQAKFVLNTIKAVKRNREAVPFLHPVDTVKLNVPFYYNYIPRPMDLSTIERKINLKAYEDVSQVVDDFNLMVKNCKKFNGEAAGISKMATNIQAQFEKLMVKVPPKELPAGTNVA

T2: CaBdf1 BD2 (GST-tagged, wild-type) (Candida albicans (strain SC5314 / ATCC …, UniProt Q5A4W8))
T2 chain: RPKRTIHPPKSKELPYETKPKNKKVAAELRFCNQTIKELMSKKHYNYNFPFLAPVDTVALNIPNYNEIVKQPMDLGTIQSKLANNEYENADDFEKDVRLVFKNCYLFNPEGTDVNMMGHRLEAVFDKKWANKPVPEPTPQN


Biological target: T1, CaBdf1 BD1 (GST-tagged, wild-type)
Test: histone peptide array (Active Motif MODified), 1 uM GST-tagged bromodomain, anti-GST detection, normalized mean intensity

Binder	binding score
ARTKQTARKSTGGKAPRKQ (A R T K Q T A R Kac S T G G K A P R K Q)	0.0087
SGRGKGGKGLGKGGAKRHR (S G Rme2s G K G G Kac G L G K G G A K R H R)	0.0152
PDPAK(Ac)SAPAPKKG[pS]KKAVT	0.00689
SGRGKGGKGLGKGGAKRHR (pS G R G K G G K G L G K G G A K R H R)	0.00471
A[Arg(Me2s)]T[Lys(Me2)]QTARKSTGGKAPRKQ	0.0029
ARTK(Me2)QTARKSTGGKAPRKQ	0.00181
ARTKQTARKSTGGKAPRKQ (A Rme2a T Kac Q T A Rme2s Kme2 S T G G K A P R K Q)	0.00616
ARTKQTARKSTGGKAPRKQ (A R T K Q T A Rme2s Kme1 S pT G G K A P R K Q)	0.0029
ARTKQTARKSTGGKAPRKQ (not fully specified)	0
SGRGKGGKGLGKGGAKRHR (S G R G K G G Kac G L G K G G A Kac R H R)	0.0228
ARTK(me2)QTAR(me2a)K(me2)STGGKAPRKQ (reading uncertain)	0.000725
RKSAPATGGVKKPHRYRPG (R K S A P A T G G V Kac K P H R Y R P G) [H3 26-45]	0.0344
ARTKQTARKSTGGKAPRKQ (A R T K Q T A Rme2a Kme2 pS T G G K A P R K Q)	0.00471
ARTK(Me3)QTAR(Me2a)K(Ac)STGGKAPRKQ (reading uncertain)	0.0359
PRKQLATKAA[Arg(Me2a)]K[pS]APATGG	0.00435
ARTKQTARKSTGGKAPRKQ (A Rme2a T Kme1 Q T A Rme2a K S T G G K A P R K Q)	0.00435
ARTKQTARKSTGGKAPRKQ (A R T K Q T A Rme2a Kme2 S pT G G K A P R K Q)	0.00435
ARTKQTARKSTGGKAPRKQ (A Rme2s T Kme2 Q T A Rme2a Kme2 S T G G K A P R K Q)	0.0029
ARTKQTARKSTGGKAPRKQ (A R T K Q T A Rme2a K S T G G K A P R K Q)	0.00326
ARTKQTARKSTGGKAPRKQ (A Rme2s T Kme3 Q T A Rme2s Kme1 S T G G K A P R K Q)	0.00363
ARTKQTARKSTGGKAPRKQ (A R T K Q T A R Kme3 pS T G G K A P R K Q)	0.00363
A[Arg(Me2a)]T[Lys(Me)]QTA[Arg(Me2s)][Lys(Me)]STGGKAPRKQ	0.00471

Binder	binding score
A[Arg(Me2s)][pT]K(Me)QTARKSTGGKAPRKQ	0.00181
ARTKQTARKSTGGKAPRKQ (A Rme2s T Kme2 Q T A Rme2s Kme1 S T G G K A P R K Q)	0.00544
A[Arg(Me2a)]T[Lys(Me2)]QTAR[Lys(Me2)]STGGKAPRKQ	0.00399
SGRGKGGKGLGKGGAKRHR (S G R G Kac G G Kac G L G Kac G G A K R H R)	0.0729
ARTKQTARKSTGGKAPRKQ (A R T Kme2 Q T A Rme2s Kme2 S T G G K A P R K Q)	0.00218
ARTKQTARKSTGGKAPRKQ (A R T Kme3 Q T A Rme2s Kme2 S T G G K A P R K Q)	0.00254
ARTKQTARKSTGGKAPRKQ (A Rme2s T Kac Q T A Rme2a Kme3 S T G G K A P R K Q)	0.00471
ARTKQTARKSTGGKAPRKQ (A Rme2s T Kme3 Q T A Rme2s Kme2 S T G G K A P R K Q)	0.0029
ARTKQTARKSTGGKAPRKQ (A Rme2s pT Kme3 Q T A R K S T G G K A P R K Q)	0.00363
ARTKQTARKSTGGKAPRKQ (A R T K Q T A R Kme1 pS T G G K A P R K Q)	0.00181
PDPAK(Ac)SAPAPKKG[pS]K(Ac)KAVT	0.0656
A[Arg(Me2s)][pT]KQTARKSTGGKAPRKQ	0.00326
PRKQLATKAARK[pS]APATGG	0.00218
AR(Me2a)TK(Ac)QTAR(Me2a)K(Ac)STGGKAPRKQ (reading uncertain)	0.0413
PRKQLATKAAR(Me2s)K(Me2)SAPATGG	0.00254
A[Arg(Me2a)]T[Lys(Me)]QTAR[Kac]STGGKAPRKQ	0.0359
SGRGKGGKGLGKGGAKRHR (S G Rme2s G K G G K G L G K G G A K R H R)	0.00399
PRKQLATKAARK(Me3)SAPATGG	0.00616
SGRGKGGKGLGKGGAKRHR (pS G R G Kac G G K G L G K G G A K R H R)	0.0167
ARTKQTARKSTGGKAPRKQ (A Rme2a T Kme1 Q T A R Kme2 S T G G K A P R K Q)	0.00326
ARTKQTARKSTGGKAPRKQ (A Rme2a T Kac Q T A R Kme2 S T G G K A P R K Q)	0.0112
ARTKQTARKSTGGKAPRKQ (A Rme2s T Kac Q T A Rme2s K S T G G K A P R K Q)	0.00363

Biological target: T2, CaBdf1 BD2 (GST-tagged, wild-type)
Test: as above

Binder	binding score
ARTKQTARKSTGGKAPRKQ (A R T K Q T A R Kac S T G G K A P R K Q)	0.0037
SGRGKGGKGLGKGGAKRHR (S G Rme2s G K G G Kac G L G K G G A K R H R)	0.00777
PDPAK(Ac)SAPAPKKG[pS]KKAVT	0.00074
SGRGKGGKGLGKGGAKRHR (pS G R G K G G K G L G K G G A K R H R)	0.00444
A[Arg(Me2s)]T[Lys(Me2)]QTARKSTGGKAPRKQ	0
ARTK(Me2)QTARKSTGGKAPRKQ	0.00148
ARTKQTARKSTGGKAPRKQ (A R T K Q T A Rme2s Kme1 S pT G G K A P R K Q)	0.00407
ARTKQTARKSTGGKAPRKQ (not fully specified)	0.00259
SGRGKGGKGLGKGGAKRHR (S G R G K G G Kac G L G K G G A Kac R H R)	0.00999
ARTK(me2)QTAR(me2a)K(me2)STGGKAPRKQ (reading uncertain)	0.00259
RKSAPATGGVKKPHRYRPG (R K S A P A T G G V Kac K P H R Y R P G) [H3 26-45]	0.0122
ARTKQTARKSTGGKAPRKQ (A R T K Q T A Rme2a Kme2 pS T G G K A P R K Q)	0.00259
ARTK(Me3)QTAR(Me2a)K(Ac)STGGKAPRKQ (reading uncertain)	0.00888
PRKQLATKAA[Arg(Me2a)]K[pS]APATGG	0.00407
ARTKQTARKSTGGKAPRKQ (A Rme2a T Kme1 Q T A Rme2a K S T G G K A P R K Q)	0.00259
ARTKQTARKSTGGKAPRKQ (A Rme2s T Kme2 Q T A Rme2a Kme2 S T G G K A P R K Q)	0.00666
ARTKQTARKSTGGKAPRKQ (A R T K Q T A Rme2a K S T G G K A P R K Q)	0.00222
ARTKQTARKSTGGKAPRKQ (A R T K Q T A R Kme3 pS T G G K A P R K Q)	0.00333
A[Arg(Me2a)]T[Lys(Me)]QTA[Arg(Me2s)][Lys(Me)]STGGKAPRKQ	0.0037
A[Arg(Me2s)][pT]K(Me)QTARKSTGGKAPRKQ	0.0037

Binder	binding score
ARTKQTARKSTGGKAPRKQ (A Rme2s T Kme2 Q T A Rme2s Kme1 S T G G K A P R K Q)	0.00407
A[Arg(Me2a)]T[Lys(Me2)]QTAR[Lys(Me2)]STGGKAPRKQ	0.00222
SGRGKGGKGLGKGGAKRHR (S G R G Kac G G Kac G L G Kac G G A K R H R)	0.179
ARTKQTARKSTGGKAPRKQ (A R T Kme3 Q T A Rme2s Kme2 S T G G K A P R K Q)	0.00407
ARTKQTARKSTGGKAPRKQ (A Rme2s T Kac Q T A Rme2a Kme3 S T G G K A P R K Q)	0.00407
ARTKQTARKSTGGKAPRKQ (A Rme2s T Kme3 Q T A Rme2s Kme2 S T G G K A P R K Q)	0.00407
ARTKQTARKSTGGKAPRKQ (A Rme2s pT Kme3 Q T A R K S T G G K A P R K Q)	0.00185
PDPAK(Ac)SAPAPKKG[pS]K(Ac)KAVT	0.174
A[Arg(Me2s)][pT]KQTARKSTGGKAPRKQ	0.00074
ARTKQTARKSTGGKAPRKQ (A R T K Q T A R K S pT G G Kac A P R K Q)	0.00999
PRKQLATKAARK[pS]APATGG	0.00555
AR(Me2a)TK(Ac)QTAR(Me2a)K(Ac)STGGKAPRKQ (reading uncertain)	0.0107
PRKQLATKAAR(Me2s)K(Me2)SAPATGG	0.00222
A[Arg(Me2a)]T[Lys(Me)]QTAR[Kac]STGGKAPRKQ	0.00592
SGRGKGGKGLGKGGAKRHR (S G Rme2s G K G G K G L G K G G A K R H R)	0.00666
PRKQLATKAARK(Me3)SAPATGG	0.00851
SGRGKGGKGLGKGGAKRHR (pS G R G Kac G G K G L G K G G A K R H R)	0.00555
AR(me2a)TK(Ac)QTAR(me2a)K(me2)STGGKAPRKQ (reading uncertain)	0.00703
ARTKQTARKSTGGKAPRKQ (A Rme2a T Kme1 Q T A R Kme2 S T G G K A P R K Q)	0.0037
ARTKQTARKSTGGKAPRKQ (A Rme2a T Kac Q T A R Kme2 S T G G K A P R K Q)	0.00407
